Source: article PMC1934351

Experiments:
[1] = test system: L1 repressor CI (native, untagged) (Mycobacteriophage L1); test: equilibrium binding; conditions: data not shown; EMSA in Buffer A (binding buffer composition not given in material) with 10 ug/ml BSA, ~0.1 nM 32P-labeled operator, 20 ul, 25 C for 20 min (also 32, 37, 42 C …)
[2] = target: C-terminal domain (CTD) of L1 repressor CI (mycobacteriophage L1); test: SEC; analytical HPLC gel filtration (Protein Pak, Waters) in Buffer A minus PMSF; ~20 uM protein loaded; column calibrated with BSA, ovalbumin, carbonic anhydrase, lysozyme; monomer to dimer
[3] = target: C-terminal domain (CTD) of L1 repressor CI (mycobacteriophage L1); test: cross-linking; 0.1% glutaraldehyde for 2 min after 20 min at 25°C in Buffer A, ~0.5 uM protein, SDS-10% PAGE, silver staining; monomer to dimer
[4] = target: N-terminal histidine-tagged repressor (CI) of temperate mycobacteriophage L1 (mycobacteriophage L1); test: SEC; analytical HPLC gel filtration (Protein Pak, Waters) in Buffer A minus PMSF; ~20 uM protein loaded; column calibrated with BSA, ovalbumin, carbonic anhydrase, lysozyme; monomer to dimer
[5] = target: N-terminal histidine-tagged repressor (CI) of temperate mycobacteriophage L1 (mycobacteriophage L1); test: cross-linking; 0.1% glutaraldehyde for 2 min after 20 min at 25°C in Buffer A, ~0.5 uM protein, SDS-10% PAGE, silver staining; monomer to dimer
[6] = test system: L1 repressor CI (native, untagged) (Mycobacteriophage L1); test: EMSA; conditions: EMSA in Buffer A (binding buffer composition not given in material) with 10 ug/ml BSA, ~0.1 nM 32P-labeled operator, 20 ul, 25 C for 20 min (also 32, 37, 42 C …); for Kd: 25 C, apparent Kd at 50% saturation

N-terminal histidine-tagged repressor (CI) of temperate mycobacteriophage L1, sequence (Q05286 whole entry): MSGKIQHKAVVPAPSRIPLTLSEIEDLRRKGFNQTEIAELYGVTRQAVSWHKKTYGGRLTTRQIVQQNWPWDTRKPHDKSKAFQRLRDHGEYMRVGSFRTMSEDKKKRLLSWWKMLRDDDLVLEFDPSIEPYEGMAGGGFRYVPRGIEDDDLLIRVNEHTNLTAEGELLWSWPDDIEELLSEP

In the case of 21 bp DNA carrying O64 operator, the binding signal (fold higher affinity than N4) [1] is reported as 2.57.

Substance 21 bp DNA carrying OL operator has a binding signal (affinity relative to N3 (1/2.57)) [1] of 0.389.

“C-terminal domain (CTD) of L1 repressor CI (domain or fragment)” showed a stoichiometry N [2] of 2 and a stoichiometry N [3] of 2.

In the case of “N-terminal histidine-tagged repressor (CI) of temperate mycobacteriophage L1”, the stoichiometry N [4] is reported as 2 and the stoichiometry N [5] is reported as 2.

For O64 (~120 bp), the Kd [6] was 140 nM and the binding signal (fold decrease of affinity vs 25 C) [6] was 6.

For OL (97 bp), the Kd [6] was 370 nM.
